Article PMC3280358
Each block holds one substance with its values, some of them ahead of it.

Columns and labels:
Nbs1 1-382 = Nbs1 1-382 (UniProt O60934); assay: ITC
Nbs1 = Nbs1 (UniProt O60934); assay: far-western with FLAG-Nbs1; details: reference: nonphosphorylated NTD; sites T13

KD (Nbs1 1-382; reference: nonphosphorylated peptide, sites T13): gained; reference no detectable binding
Substance: Rad51 NTD peptide (from UniProt Q06609) pT13 peptide

binding against the reference (Nbs1): gained
Substance: Rad51 NTD, 1-86 (from UniProt Q06609) CK2-phosphorylated NTD

KD (Nbs1 1-382; reference: pS14 peptide, sites T13): gained; reference no detectable binding
KD (Nbs1 1-382; reference: pT13 peptide, sites S14): weaker; reference around 20
Substance: Rad51 NTD peptide (from UniProt Q06609) pT13/pS14 peptide
